Non-standard residues stand in square brackets, D forms with d. *: point of attachment. Biotin = O=C1N[C@H]2[C@H](CS[C@H]2CCCCC(=O)*)N1; pS = N[C@@H](COP(=O)(O)O)C(=O)O; linker = not defined here
T1: SCOC aa 6–18 LIR peptide (human, reading uncertain)
T1 construct: SCOC isoform 3 aa 6-18; source: synthetic peptide
T1 peptide: {Biotin-linker}-KEEEEDSTFTNIS-NH2

T2: SCOC aa 11–25 LIR peptide (human, reading uncertain)
T2 construct: SCOC isoform 3 aa 11-25; also called SCOC LIR motif (aa 11–25); source: synthetic peptide
T2 peptide: {Biotin-linker}-DSTFTNISLADDIDH-NH2

T3: SCOC pS12/pT15 LIR peptide (human, phosphoserine at 12; phosphothreonine at 15; biotin-linker on the N-terminus; C-terminal amide)
T3 construct: SCOC isoform 3 aa 6-25; also called S12/T15^SCOC; source: synthetic peptide
T3 peptide: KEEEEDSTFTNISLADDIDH

T4: SCOC pS12 LIR peptide (human, phosphoserine at 12; biotin-linker on the N-terminus; C-terminal amide)
T4 construct: SCOC isoform 3 aa 6-25; source: synthetic peptide
T4 peptide: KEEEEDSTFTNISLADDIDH

B1: LC3C (for BLI) (natural protein, human, UniProt Q9BXW4 1-126, looked up)
chain: MPPPQKIPSVRPFKQRKSLAIRQEEVAGIRAKFPNKIPVVVERYPRETFLPPLDKTKFLVPQELTMTQFLSIIRSRMVLRATEAFYLLVNNKSLVSMSATMAEIYRDYKDEDGFVYMTYASQETFG
notes: human LC3C in the pAL plasmid (GST, 3C site)
B2: GABARAP (for BLI) (natural protein, human, UniProt O95166 1-117, looked up)
chain: MKFVYKEEHPFEKRRSEGEKIRKKYPDRVPVIVEKAPKARIGDLDKKKYLVPSDLTVGQFYFLIRKRIHLRAEDALFFFVNNVIPPTSATMGQLYQEHHEEDFFLYIAYSDESVYGL
notes: human GABARAP in the pAL plasmid (GST, 3C site)

Key:
Test in all cases: BLI; biotinylated LIR peptide immobilized on streptavidin biosensor, ATG8 in solution; 25 mM Tris pH 7.5, 150 mM NaCl, 0.5 mM TCEP, 0.1% Tween20, 1 mg/ml BSA; 25 °C; Kd from response against concentration
Settings in all cases: both partners purified
[1] = target: B2
[2] = target: T5, GABARAPL1 (for BLI) (human, UniProt Q9H0R8 1-117)
T5 construct: human GABARAPL1 in the pAL plasmid (GST, 3C site)

[3] = target: T6, LC3A (for BLI) (human, UniProt Q9H492 1-121)
T6 construct: human LC3A in the pAL plasmid (GST, 3C site)

[4] = target: B1
[5] = target: LC3B (for BLI) (human, UniProt Q9GZQ8 1-120)
[6] = target: T7, GABARAPL2 (for BLI) (human, UniProt P60520 1-117)
T7 construct: human GABARAPL2 in the pAL plasmid (GST, 3C site)
T7 sequence (P60520 whole entry): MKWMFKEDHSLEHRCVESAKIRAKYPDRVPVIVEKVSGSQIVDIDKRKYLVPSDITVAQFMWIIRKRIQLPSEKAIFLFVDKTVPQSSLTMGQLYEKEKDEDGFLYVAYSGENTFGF

[7] = target: T1, SCOC aa 6–18 LIR peptide
[8] = target: T2, SCOC aa 11–25 LIR peptide
[9] = target: T3, SCOC pS12/pT15 LIR peptide
[10] = target: T4, SCOC pS12 LIR peptide

Binder | binding result [1] | binding result [2] | binding result [4] | fold decrease in affinity against SCOC WT LIR peptide [7] [fold] | fold decrease in affinity against SCOC WT LIR peptide [8] [fold] | also measured
{Biotin-linker}-KEEEEDSTFTNI[pS]LA-NH2 (reading uncertain, SCOC isoform 3 aa 6-20; source: synthetic peptide) [SCOC aa 6–20/pS18 LIR peptide] | binds | binds | binds |  |  | binding result [3]: binds
{Biotin-linker}-KEEEEDSTFTNISLADDIDH-NH2 (reading uncertain, SCOC isoform 3 aa 6-25; also called SCOC (WT) LIR domain peptide; SCOC LIR; source: synthetic peptide) [SCOC WT (aa 6–25) LIR peptide] |  |  |  |  |  | Kd [1]: 3.6 µM; Kd [2]: 2.3 µM; Kd [3]: 27.8 µM; Kd [5]: 270 µM; Kd [4]: 8.7 µM; Kd [6]: 44.4 µM
B1 |  |  |  | 22 | 16 | fold increase in affinity over SCOC WT LIR peptide [9]: 21 fold
B2 |  |  |  | 4 | 37 | fold increase in affinity over SCOC WT LIR peptide [10]: 2 fold
{Biotin-linker}-KEEEEDSTFTNISLA-NH2 (reading uncertain, SCOC isoform 3 aa 6-20; also called SCOC LIR motif (aa 6–20); source: synthetic peptide) [SCOC aa 6–20 LIR peptide] | binds | binds | binds |  |  | 
